Earlier results on two substances are cited in PMC5319824.

Values joined by “and” are separate entries in the source; they are usually repeats but may differ in a detail not shown here. Equal entries are not always repeated. Where two headings read alike, the source gives them in different places.

Series [1] deals with FtsZ (Escherichia coli) (UniProt P0A9A6).
Series [2] shares this target. The source holds these as a separate data set.
Series [3] has the same target. The source holds these as a separate data set.

Sequence of FtsZ (Escherichia coli) (P0A9A6 whole entry): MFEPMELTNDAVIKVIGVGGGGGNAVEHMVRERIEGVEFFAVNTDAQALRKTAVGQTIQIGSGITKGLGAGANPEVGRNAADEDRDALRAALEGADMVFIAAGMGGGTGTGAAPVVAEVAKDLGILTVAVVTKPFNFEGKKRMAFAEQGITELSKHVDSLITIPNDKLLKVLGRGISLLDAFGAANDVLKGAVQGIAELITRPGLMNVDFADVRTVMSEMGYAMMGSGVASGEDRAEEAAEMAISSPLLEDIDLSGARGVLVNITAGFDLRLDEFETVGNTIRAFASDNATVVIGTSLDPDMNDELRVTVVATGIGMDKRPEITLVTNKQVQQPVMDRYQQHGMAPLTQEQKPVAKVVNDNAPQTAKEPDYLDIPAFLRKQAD
Sequence of FtsA (P0ABH0 whole entry): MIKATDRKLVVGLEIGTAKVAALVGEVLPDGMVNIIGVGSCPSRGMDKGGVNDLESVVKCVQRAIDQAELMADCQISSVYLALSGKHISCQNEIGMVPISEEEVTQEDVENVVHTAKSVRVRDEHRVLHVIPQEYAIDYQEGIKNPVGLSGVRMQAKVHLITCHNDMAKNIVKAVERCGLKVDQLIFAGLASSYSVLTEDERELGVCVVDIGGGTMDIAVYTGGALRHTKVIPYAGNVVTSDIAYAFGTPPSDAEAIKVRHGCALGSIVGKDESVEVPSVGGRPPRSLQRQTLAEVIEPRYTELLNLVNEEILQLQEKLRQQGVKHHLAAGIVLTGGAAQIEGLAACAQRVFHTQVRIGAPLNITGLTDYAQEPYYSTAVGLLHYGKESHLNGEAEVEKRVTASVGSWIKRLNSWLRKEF

In general, Kd refers to the equilibrium constant for the complex coming apart. In the case of FtsA (from UniProt P0ABH0), the equilibrium dissociation constant (Kd) in series [1] was above 40 µM.

In the case of ZipA (from UniProt P77173), the equilibrium dissociation constant (Kd) in series [2] is 30 µM and 140 µM; in series [3], 0.4 µM.
